Experimental data published in US20140005125A1 (Molecular Partners, published 2014).

Key:
[1] = molecular target: T1, Recombinant human PDGF-BB (human, UniProt P01127 82-190); assay: SPR (ProteOn), biotinylated PDGF-BB on neutravidin chip, DARPin injected; Kd from on- and off-rates
T1 construct: For SPR it was chemically biotinylated on primary amines and captured on neutravidin; also called PDGF-BB (human); Reliatech 200-055
Protocol: (§1) Biotinylated PDGF-BB molecules from human and mouse were immobilized in a flow cell through binding to coated […] and the interaction with various selected DARPins was analyzed.
(§2) SPR was measured using a ProteOn instrument (BioRad) and measurement was performed according standard procedures known to the person skilled in the art. The running buffer was PBS, pH 7.4, containing 0.005% Tween 20®. Neutravidin was covalently immobilized on a GLC chip (BioRad) to a level of about 8000 resonance units (RU). Immobilization of PDGF-BB on the neutravidin coated chip was then performed. The interaction of DARPin PDGF-BB was then measured by injecting 100 μl running buffer (PBS containing 0.005% Tween®) containing serial dilutions of DARPins of concentration of […] (on-rate measurement), followed by a running buffer flow for between 10 minutes and up to 3 hours at a constant flow rate of 30 μl/min (off-rate measurement). The signals (i.e. resonance unit (RU) values) of an uncoated reference cell and a reference injection (i.e. injection of running buffer only) were subtracted from the RU traces obtained after injection of […] (double-referencing). From the SRP traces obtained from the on-rate and off-rate measurements the on- and off-rate of the corresponding DARPin PDGF-BB interaction can be determined.
(§3) Dissociation constants (Kd) were calculated from the estimated on- and off-rates using standard procedures known to the person skilled in the art.

[2] = molecular target: T1, Recombinant human PDGF-BB; assay: receptor competition ELISA: DARPin preincubated with PDGF-BB, free PDGF-BB captured on coated PDGFRbeta/Fc; mean IC50
Protocol: The potency of PEGylated anti-PDGF-BB DARPins to inhibit the binding of human PDGF-BB to its receptor PDGFRbeta was determined in a in a receptor competition ELISA (based on PDGF-BB Quantikine, R&D Systems). PDGFRbeta/Fc chimera has been precoated on a microplate. The DARPins were preincubated in assay diluent from the PDGF-BB Quantikine kit (R&D Systems) with a defined amount of PDGF-BB and incubated at room temperature for 2 hours with shaking at 750 rpm. These preincubation mixtures were then transferred into the precoated wells and any PDGF-BB that is not blocked by the DARPins was bound by the immobilized receptor. After washing away any unbound substances, a horse radish peroxidase-linked polyclonal antibody specific for PDGF-BB was added to the wells. Following a wash to remove any unbound antibody-enzyme reagent, a substrate solution was added to the wells and color was developing in proportion to the amount of PDGF-BB bound. The color development was stopped and the intensity of the color was measured at […]. Example titration curves are given for a set of DARPins in FIG. 2. IC₅₀ values were calculated from such titration curves obtained as described above using Graph Pad Prism software and standard procedures known to the person skilled in the art.

[3] = molecular target: T2, Recombinant murine PDGF-BB (mouse, UniProt P31240 82-190, limits assumed); assay: SPR (ProteOn), biotinylated PDGF-BB on neutravidin chip, DARPin injected; Kd from on- and off-rates
T2 construct: For SPR chemically biotinylated on primary amines and captured on neutravidin; also called mouse PDGF-BB; PDGF-BB (mouse)
Protocol: as §1, §2, §3

T1 sequence (P01127 82-190 limits assumed): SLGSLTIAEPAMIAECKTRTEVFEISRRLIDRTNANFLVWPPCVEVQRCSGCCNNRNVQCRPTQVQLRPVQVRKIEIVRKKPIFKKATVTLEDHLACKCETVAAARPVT
T2 sequence (P31240 82-190 limits assumed): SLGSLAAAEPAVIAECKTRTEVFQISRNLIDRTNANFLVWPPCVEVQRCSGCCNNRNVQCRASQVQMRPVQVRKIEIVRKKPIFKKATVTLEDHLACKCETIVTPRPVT

Binder | Kd [1] | IC50 [2] | Kd [3]
DARPin #47 (designed binder) MRGSHHHHHHGSDLGKKLLEAARAGQDDEVRILLKAGADVNAKDKSGHTPLHLAAYSGHLEIVEVLLKAGADVNAKDQEGTTPLHFAASVGHLEIVEVLLKAGADVNAQDHYGATPADLAALIGHEDIAEVLQKLN | 0.0937 nM | 0.14 nM | –
DARPin #45 (designed binder) MRGSHHHHHHGSDLGKKLLEAARAGQDDEVRELLKAGADVNAKDKSGHTPLHLAAYSGHLEIVEVLLKAGADVNAKDQEGTTPLHFAASVGHLEIVEVLLKAGADVNAQDHYGATPADLAALIGHEDIAEVLQKLN | 0.108 nM | 0.16 nM | –
DARPin #46 (designed binder) MRGSHHHHHHGSDLGKKLLEAARAGQDDEVRILMANGADVNAKDKSGHTPLHLAAYSGHLEIVEVLLKAGADVNAKDQEGTTPLHFAASVGHLEIVEVLLKAGADVNAQDHYGATPADLAALIGHEDIAEVLQKLN | 0.112 nM | 0.15 nM | –
DARPin #35 (designed binder) MRGSHHHHHHGSDLGQKLLYAAEHGQDDEVRILLAAGADVNAKDQTGSTPLHYAAVWGHMEIVEVLLKAGADVNAQDLWGATPADLAAFLGHEDIAVVLQKLN | 0.0956 nM | – | 0.0981 nM
DARPin #57 (designed binder) MRGSHHHHHHGSDLGKKLLEAARAGQDDEVRILLKAGADVNAKDLNGQTPLHLAADIGHLEIVEVLLKAGADVNAKDYAGSTPLRLAAWAGHLEIVEVLLKAGADVNAKDYFGYTPLHLAAYFGHLEIVEVLLKAGADVNAQDKSGKTPADLAADAGHEDIAEVLQKLN | 0.123 nM | 0.204 nM | –
DARPin #58 (designed binder) MRGSHHHHHHGSDLGKKLLEAARAGQDDEVRELLKAGADVNAKDLNGQTPLHLAADIGHLEIVEVLLKAGADVNAKDYAGSTPLRLAAWAGHLEIVEVLLKAGADVNAKDYFGYTPLHLAAYFGHLEIVEVLLKAGADVNAQDKSGKTPADLAADAGHEDIAEVLQKLN | 0.257 nM | 0.47 nM | –
DARPin #51 (designed binder) MRGSHHHHHHGSDLGKKLLEAARAGQDDEVRILMANGADVNAKDLNGQTPLHLAADIGHLEIVEVLLKAGADVNAKDYAGSTPLRLAAWAGHLEIVEVLLKAGADVNAKDYFGYTPLHLAAYFGHLEIVEVLLKAGADVNAQDKFGKTAFDISIDNGNEDLAEILQKLN | 0.121 nM | 0.008 nM | –
DARPin #53 (designed binder) MRGSHHHHHHGSDLDKKLLEAARAGQDDEVRILMANGADVNAKDLNGQTPLHLAADIGHLEIVEVLLKAGADVNAKDYAGSTPLRLAAWAGHLEIVEVLLKAGADVNAKDYFGYTPLHLAAYFGHLEIVEVLLKAGADVNAQDKFGKTPADIAADNGHEDIAEVLQKLN | 0.128 nM | 0.036 nM | –
DARPin #56 (designed binder) MRGSHHHHHHGSDLDKKLLEAARAGQDDEVRILLKAGADVNAKDLNGQTPLHLAADIGHLEIVEVLLKAGADVNAKDYAGSTPLRLAAWAGHLEIVEVLLKAGADVNAKDYFGYTPLHLAAYFGHLEIVEVLLKAGADVNAQDKFGKTPADIAADNGHEDIAEVLQKLN | 0.15 nM | 0.17 nM | –
DARPin #54 (designed binder) MRGSHHHHHHGSDLGKKLLEAARAGQDDEVRILMANGADVNAKDLNGQTPLHLAADIGHLEIVEVLLKAGADVNAKDYAGSTPLRLAAWAGHLEIVEVLLKAGADVNAKDYFGYTPLHLAAYFGHLEIVEVLLKAGADVNAQDKSGKTPADLAADAGHEDIAEVLQKLN | 0.245 nM | 0.21 nM | –
DARPin #55 (designed binder) MRGSHHHHHHGSDLGKKLLEAARAGQDDEVRILLKAGADVNAKDLNGQTPLHLAADIGHLEIVEVLLKAGADVNAKDYAGSTPLRLAAWAGHLEIVEVLLKAGADVNAKDYFGYTPLHLAAYFGHLEIVEVLLKAGADVNAQDKFGKTAFDISIDNGNEDLAEILQKLN | 0.0555 nM | 0.014 nM | –
DARPin #29 (designed binder) MRGSHHHHHHGSDLGKKLLEAARAGQDDEVRILLKAGADVNAKDEEGTTPLHYAAVWGHLEIVEVLLKAGADVNAQDIYGATPADLAALVGHEDIAEVLQKLN | 0.105 nM | 0.015 nM | –
DARPin #26 (designed binder) MRGSHHHHHHGSDLGKKLLEAARAGQDDEVRILLAAGADVNAKDEEGTTPLHYAAVWGHLEIVEVLLKAGADVNAQDIYGATPADLAALVGHEDIAEILQKLN | 0.0177 nM | – | 0.0174 nM
DARPin #31 (designed binder) MRGSHHHHHHGSDLGKKLLEAARAGQDDEVRELLKAGADVNAKDEEGTTPLHYAAVFGHLEIVEVLLKAGADVNAQDIYGATPADLAALVGHEDIAEVLQKLN | 0.109 nM | 0.48 nM | –
DARPin #25 (designed binder) MRGSHHHHHHGSDLGKKLLEAARAGQDDEVRILMANGADVNAKDEEGTTPLHYAAVWGHLEIVEVLLKAGADVNAQDIYGATPADLAALVGHEDIAEILQKLN | 0.0147 nM | – | 0.0128 nM
DARPin #33 (designed binder) MRGSHHHHHHGSDLGHKLLQAAEQGQDDEVRILLAAGADVNAKDEYGTTPLHFAAVWGHLEIVEVLLKAGADVNAQDVFGATPADLAAYVGHEDIAEVLQKLN | 0.0806 nM | – | 0.0904 nM
DARPin #40 (designed binder) MRGSHHHHHHGSDLGYKLLSAAQYGQDDEVRILLAAGADVNAKDYSGTTPLHYAATWGHLEIVEVLLKAGADVNAQDIYGATPADLAALIGHEDIAEVLQKLN | 0.0344 nM | – | 0.0608 nM
DARPin #32 (designed binder) MRGSHHHHHHGSDLGHKLLQAAKHGQDDEVRILLAAGADVNAKDDEGTTPLHYAAVWGHLEIVEVLLKAGADVNAQDAYGATPADLAAFLGHEDIAEVLQKLN | 0.0638 nM | – | 0.0834 nM
DARPin #37 (designed binder) MRGSHHHHHHGSDLGWKLLEAARTGQDDEVRILLAAGADVNAKDITGTTPLHYAAAWGHMEIVEVLLKTGADVNAQDLYGATPADLAALLGHEDIAEVLQKLN | 0.152 nM | > 0.4 nM | 0.0828 nM
DARPin #36 (designed binder) MRGSHHHHHHGSDLGSKLLTAALDGQDDEVRILLAAGADVNAKDEEGTTPLHYAAVVGHLEIVEVLLKAGADVNAQDIWGATPADLAALVGHEDIAEVLQKLN | 0.0242 nM | – | 0.053 nM
DARPin #43 (designed binder) MRGSHHHHHHGSDLGLKLLEAAQRGQDDEVRILLAAGADVNAKDREGWTPLHVAAYEGHLEIVEVLLKAGADVNAKDYTGLTPLHVAAVWGHLEIVEVLLKAGADVNAQDIYGATPADLAAYIGHEDIAEVLQKLN | 1290 nM | – | 1510 nM
DARPin #52 (designed binder) MRGSHHHHHHGSDLGKKLLEAARAGQDDEVRILMANGADVNAQDLNGQTPLHLAADIGHLEIVEVLLKHGADVNAQDYAGSTPLRLAAWAGHLEIVEVLLKNGADVNANDYFGYTPLHLAAYFGHLEIVDVLLKHGADVNAQDKFGKTPADIAADNGHEDIAEVLQKLN | – | 0.068 nM | –
DARPin #42 (designed binder) MRGSHHHHHHGSDLGYKLLFAAYVGQDDEVRILLAAGADVNAKDRHGRTPLHLAAWEGHLEIVEVLLKAGADVNAKDDEGTTPLHLLAAWEGHLEIVEVLLKAGADVNAQDVYGATPADLAAYIGHEDIAEVLQKLN | 0.0805 nM | – | 0.0974 nM
